Source: patent publication EP2149585A1
Like-named read-outs stand apart in the source and are kept apart here.

Legend:
Experiment in all cases: cell-based or functional assay
[1] = target: human CD40 on the cell surface (human) (UniProt P25942)
[2] = target: human CD40 on B cells in PBMC from normal human subjects (human) (UniProt P25942)
[3] = target: human CD40 on normal human B cells / PBMC (human) (UniProt P25942)
[4] = target: human CD40 on B cells within PBMC from normal human subjects (human) (UniProt P25942)
[5] = target: human CD40 on normal human B cells / PBMC (human) (UniProt P25942); remark: listed apart in the source
[6] = target: CD20 on the cell surface (human) (UniProt P11836)
Chain of CD20 on the cell surface (human) (P11836 whole entry): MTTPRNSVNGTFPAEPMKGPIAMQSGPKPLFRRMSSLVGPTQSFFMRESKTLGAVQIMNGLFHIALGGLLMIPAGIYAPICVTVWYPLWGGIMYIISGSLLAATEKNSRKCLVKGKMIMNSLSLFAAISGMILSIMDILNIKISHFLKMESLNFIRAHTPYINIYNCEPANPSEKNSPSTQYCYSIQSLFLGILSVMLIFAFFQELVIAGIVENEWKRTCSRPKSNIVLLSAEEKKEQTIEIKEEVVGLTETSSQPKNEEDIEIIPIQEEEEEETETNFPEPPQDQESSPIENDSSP

Chain of human CD40 on normal human B cells / PBMC (human) (P25942 20-277): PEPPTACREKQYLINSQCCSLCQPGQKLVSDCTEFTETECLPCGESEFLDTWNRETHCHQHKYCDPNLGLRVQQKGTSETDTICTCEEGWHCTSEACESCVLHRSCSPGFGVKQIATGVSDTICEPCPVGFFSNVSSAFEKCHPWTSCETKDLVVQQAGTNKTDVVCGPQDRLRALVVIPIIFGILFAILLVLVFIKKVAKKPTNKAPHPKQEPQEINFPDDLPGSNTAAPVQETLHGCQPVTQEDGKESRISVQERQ
Chain of human CD40 on B cells within PBMC from normal human subjects (human) (P25942 20-277): as above
Chain of human CD40 on B cells in PBMC from normal human subjects (human) (P25942 20-277): as above
Chain of human CD40 on the cell surface (human) (P25942 20-277): as above

Substance “CD40 ligand on formaldehyde-fixed CHO cells (from UniProt P29965 1-261)” has an average stimulation index (SI) of PBMC proliferation [1] of 7.41.

For “CD40 ligand expressed on formaldehyde-fixed CHO cells (from UniProt P29965 1-261)”, the Average SI of PBMC, index(1), PBMC+CHO-CD40L [2] was 5.09, the CPM, PBMC+CHO-CD40L (PBMC-010) [2] was 5280 CPM and the CPM, PBMC+CHO-CD40L (PBMC-011 Donor#1) [2] was 8250 CPM. For the same substance, the CPM, PBMC+CHO-CD40L (PBMC-011 Donor#2) [2] was 11600 CPM, the CPM, PBMC+CHO-CD40L (PBMC-011 Donor#3) [2] was 7960 CPM and the CPM, PBMC+CHO-CD40L (PBMC-011 Donor#4) [2] was 14300 CPM. For the same substance, the CPM, PBMC+CHO-CD40L (PBMC-014) [2] was 8790 CPM, the CPM, PBMC+CHO-CD40L (PBMC-015 Donor#1) [2] was 12900 CPM and the CPM, PBMC+CHO-CD40L (PBMC-015 Donor#2) [2] was 19100 CPM. The CPM, PBMC+CHO-CD40L (PBMC-015 Donor#3) [2] was 19800 CPM, the CPM, PBMC+CHO-CD40L (PBMC-016) [2] was 15800 CPM and the index(1), PBMC+CHO-CD40L (PBMC-010) [2] was 3.73. It also gave an index(1), PBMC+CHO-CD40L (PBMC-011 Donor#1) [2] of 3.86, an index(1), PBMC+CHO-CD40L (PBMC-011 Donor#2) [2] of 4.87 and an index(1), PBMC+CHO-CD40L (PBMC-011 Donor#3) [2] of 2.46. For the same substance, the index(1), PBMC+CHO-CD40L (PBMC-011 Donor#4) [2] was 3.41, the index(1), PBMC+CHO-CD40L (PBMC-014) [2] was 3.74 and the index(1), PBMC+CHO-CD40L (PBMC-015 Donor#1) [2] was 3.94. For the same substance, the index(1), PBMC+CHO-CD40L (PBMC-015 Donor#2) [2] was 3.14, the index(1), PBMC+CHO-CD40L (PBMC-015 Donor#3) [2] was 8 and the index(1), PBMC+CHO-CD40L (PBMC-016) [2] was 13.8. For the same substance, the CPM, B cells + CHO-CD40L; B cell-004 donor 2 [3] was 27200 CPM, the CPM, B cells+CHO-CD40L; B cell-004 donor 1 [3] was 3130 CPM and the CPM, B cells+CHO-CD40L; B cell-005 donor 3 [3] was 24600 CPM. For the same substance, the CPM, PBMC+CHO-CD40L (tritiated thymidine); PBMC-025 Donor#1 [3] was 42300 CPM, the CPM, PBMC+CHO-CD40L (tritiated thymidine); PBMC-025 Donor#2 [3] was 15000 CPM and the CPM, PBMC+CHO-CD40L (tritiated thymidine); PBMC-026 Donor#1 [3] was 19100 CPM. The CPM, PBMC+CHO-CD40L (tritiated thymidine); PBMC-026 Donor#2 [3] was 17800 CPM, the CPM, PBMC+CHO-CD40L (tritiated thymidine); PBMC-028 Donor#1 [3] was 22500 CPM and the CPM, PBMC+CHO-CD40L (tritiated thymidine); PBMC-028 Donor#2 [3] was 54900 CPM. It also gave a CPM, PBMC+CHO-CD40L (tritiated thymidine); PBMC-029 Donor#1 [3] of 10100 CPM, a CPM, PBMC+CHO-CD40L (tritiated thymidine); PBMC-029 Donor#2 [3] of 23100 CPM and a CPM, PBMC+CHO-CD40L (tritiated thymidine); PBMC-030 Donor#1 [3] of 53400 CPM. For the same substance, the CPM, PBMC+CHO-CD40L (tritiated thymidine); PBMC-030 Donor#2 [3] was 53800 CPM, the CPM, PBMC+CHO-CD40L (tritiated thymidine); PBMC-032 Donor#1 [3] was 14100 CPM and the Average SI of PBMC, index(1) [4] was 11.9. For the same substance, the Average Stimulation index, S.index (1) [4] was 22, the PBMC proliferation CPM (PBMC+CHO-CD40L), Immoblize-004 [4] was 11700 CPM and the PBMC proliferation CPM (PBMC+CHO-CD40L), PBMC-012 [4] was 6810 CPM. The PBMC proliferation CPM (PBMC+CHO-CD40L), PBMC-025 Donor#1 [4] was 42300 CPM, the PBMC proliferation CPM (PBMC+CHO-CD40L), PBMC-025 Donor#2 [4] was 15000 CPM and the PBMC proliferation CPM (PBMC+CHO-CD40L), PBMC-026 Donor#1 [4] was 18300 CPM. For the same substance, the PBMC proliferation CPM (PBMC+CHO-CD40L), PBMC-026 Donor#2 [4] was 18100 CPM, the PBMC proliferation CPM (PBMC+CHO-CD40L), PBMC-027 Donor#1 [4] was 13000 CPM and the PBMC proliferation CPM (PBMC+CHO-CD40L), PBMC-027 Donor#2 [4] was 11900 CPM. The PBMC proliferation CPM (PBMC+CHO-CD40L), PBMC-028 Donor#1 [4] was 22500 CPM, the PBMC proliferation CPM (PBMC+CHO-CD40L), PBMC-028 Donor#2 [4] was 54900 CPM and the PBMC proliferation CPM (PBMC+CHO-CD40L), PBMC-029 Donor#1 [4] was 10100 CPM. It also gave a PBMC proliferation CPM (PBMC+CHO-CD40L), PBMC-029 Donor#2 [4] of 23100 CPM, a PBMC proliferation CPM (PBMC+CHO-CD40L), PBMC-030 Donor#1 [4] of 57200 CPM and a PBMC proliferation CPM (PBMC+CHO-CD40L), PBMC-030 Donor#2 [4] of 53900 CPM. It also gave a PBMC proliferation CPM (PBMC+CHO-CD40L), PBMC-032 Donor#1 [4] of 15300 CPM, a PBMC proliferation S.index (1), Immoblize-004 [4] of 13.7 and a PBMC proliferation S.index (1), PBMC-012 [4] of 30.3. It also gave a PBMC proliferation index(1), PBMC-025 Donor#1 [4] of 10.4, a PBMC proliferation index(1), PBMC-025 Donor#2 [4] of 6.63 and a PBMC proliferation index(1), PBMC-026 Donor#1 [4] of 8.78. It also gave a PBMC proliferation index(1), PBMC-026 Donor#2 [4] of 26.7, a PBMC proliferation index(1), PBMC-027 Donor#1 [4] of 4.75 and a PBMC proliferation index(1), PBMC-027 Donor#2 [4] of 8.89. It also gave a PBMC proliferation index(1), PBMC-028 Donor#1 [4] of 5.26, a PBMC proliferation index(1), PBMC-028 Donor#2 [4] of 25.6 and a PBMC proliferation index(1), PBMC-029 Donor#1 [4] of 16.5. The PBMC proliferation index(1), PBMC-029 Donor#2 [4] was 2.99, the PBMC proliferation index(1), PBMC-030 Donor#1 [4] was 13.7 and the PBMC proliferation index(1), PBMC-030 Donor#2 [4] was 16.2. It also gave a PBMC proliferation index(1), PBMC-032 Donor#1 [4] of 8.45, an Average Stimulation Index (SI), B cells+CHO-CD40L [5] of 145 and a CPM, B cells+CHO-CD40L; B cell-004 donor 1 [5] of 3130 CPM. The CPM, B cells+CHO-CD40L; B cell-005 donor 3 [5] was 24600 CPM, the CPM, B cells+CHO-CD40L; donor 2 [5] was 27200 CPM and the S. index(1) = CPM (B cells+CHO-CD40L)/CPM (B cells alone); B cell-004 donor 1 [5] was 7.49. The S. index(1) = CPM (B cells+CHO-CD40L)/CPM (B cells alone); B cell-005 donor 3 [5] was 92 and the S. index(1) = CPM (B cells+CHO-CD40L)/CPM (B cells alone); donor 2 [5] was 336.

In the case of rituximab (antibody), the % lysis - % lysis IgG1; ADCC-006, huNK E:T 2, 0.01 ug/ml [6] is reported as 33%, the % lysis - % lysis IgG1; ADCC-006, huNK E:T 2, 0.1 ug/ml [6] is reported as 44.6% and the % lysis - % lysis IgG1; ADCC-006, huNK E:T 2, 1 ug/ml [6] is reported as 45.7%. The % lysis - % lysis IgG1; ADCC-006, huNK E:T 2, 10 ug/ml [6] was 37.9%, the % lysis - % lysis IgG1; ADCC-009 Calcein AM, huNK E:T 10, 0.04 ug/ml [6] was 81.5% and the % lysis - % lysis IgG1; ADCC-009 Calcein AM, huNK E:T 10, 0.2 ug/ml [6] was 90.2%. For the same substance, the % lysis - % lysis IgG1; ADCC-009 Calcein AM, huNK E:T 10, 1 ug/ml [6] was 87.7%, the % lysis - % lysis IgG1; ADCC-009 Calcein AM, huNK E:T 10, 5 ug/ml [6] was 83.9% and the % lysis - % lysis IgG1; ADCC-011 Calcein AM, huNK E:T 8, 0.0004 ug/ml [6] was -1.04%. The % lysis - % lysis IgG1; ADCC-011 Calcein AM, huNK E:T 8, 0.002 ug/ml [6] was 4.16%, the % lysis - % lysis IgG1; ADCC-011 Calcein AM, huNK E:T 8, 0.01 ug/ml [6] was 10.1% and the % lysis - % lysis IgG1; ADCC-011 Calcein AM, huNK E:T 8, 1 ug/ml [6] was 19.3%. The % lysis - % lysis IgG1; ADCC-012 Calcein AM, huNK E:T 10, 0.001 ug/ml [6] was 21.1%, the % lysis - % lysis IgG1; ADCC-012 Calcein AM, huNK E:T 10, 0.005 ug/ml [6] was 25.7% and the % lysis - % lysis IgG1; ADCC-012 Calcein AM, huNK E:T 10, 0.01 ug/ml [6] was 37.9%. For the same substance, the % lysis - % lysis IgG1; ADCC-012 Calcein AM, huNK E:T 10, 1 ug/ml [6] was 52.5%, the % lysis - % lysis IgG1; ADCC-012 Calcein AM, huNK E:T 10, 10 ug/ml [6] was 37.4% and the % lysis - % lysis IgG1; ADCC-013 51Cr, PBMC E:T 100, 0.001 ug/ml [6] was 0.35%. For the same substance, the % lysis - % lysis IgG1; ADCC-013 51Cr, PBMC E:T 100, 0.01 ug/ml [6] was 9.87%, the % lysis - % lysis IgG1; ADCC-013 51Cr, PBMC E:T 100, 0.1 ug/ml [6] was 24.7% and the % lysis - % lysis IgG1; ADCC-013 51Cr, PBMC E:T 100, 1 ug/ml [6] was 29.7%. It also gave a % lysis; ADCC-006, huNK E:T 2, 0.01 ug/ml [6] of 28.5%, a % lysis; ADCC-006, huNK E:T 2, 0.1 ug/ml [6] of 33.6% and a % lysis; ADCC-006, huNK E:T 2, 1 ug/ml [6] of 37.1%. It also gave a % lysis; ADCC-006, huNK E:T 2, 10 ug/ml [6] of 34.8%, a % lysis; ADCC-009 Calcein AM, huNK E:T 10, 0.04 ug/ml [6] of 84.9% and a % lysis; ADCC-009 Calcein AM, huNK E:T 10, 0.2 ug/ml [6] of 88.8%. For the same substance, the % lysis; ADCC-009 Calcein AM, huNK E:T 10, 1 ug/ml [6] was 88.2%, the % lysis; ADCC-011 Calcein AM, huNK E:T 8, 0.0004 ug/ml [6] was 5.99% and the % lysis; ADCC-011 Calcein AM, huNK E:T 8, 0.002 ug/ml [6] was 9.58%. For the same substance, the % lysis; ADCC-011 Calcein AM, huNK E:T 8, 0.01 ug/ml [6] was 14.7%, the % lysis; ADCC-011 Calcein AM, huNK E:T 8, 1 ug/ml [6] was 22.4% and the % lysis; ADCC-012 Calcein AM, huNK E:T 10, 0.001 ug/ml [6] was 33.1%. It also gave a % lysis; ADCC-012 Calcein AM, huNK E:T 10, 0.005 ug/ml [6] of 39.3%, a % lysis; ADCC-012 Calcein AM, huNK E:T 10, 0.01 ug/ml [6] of 50.2% and a % lysis; ADCC-012 Calcein AM, huNK E:T 10, 1 ug/ml [6] of 66%. It also gave a % lysis; ADCC-012 Calcein AM, huNK E:T 10, 10 ug/ml [6] of 50.8%, a % lysis; ADCC-013 51Cr, PBMC E:T 100, 0.001 ug/ml [6] of 3.13% and a % lysis; ADCC-013 51Cr, PBMC E:T 100, 0.01 ug/ml [6] of 12.8%. It also gave a % lysis; ADCC-013 51Cr, PBMC E:T 100, 0.1 ug/ml [6] of 27.2%, a % lysis; ADCC-013 51Cr, PBMC E:T 100, 1 ug/ml [6] of 32.3% and an Average % lysis at 1 ug/ml concentration of mAbs (% lysis - % lysis IgG1) [6] of 47.2%.
